B1: LRRC4B (36-576): full-length ectodomain of LRRC4B protein, amino acids 36-576 of SEQ ID NO: 2 (SEQ ID NO: 5) (protein)
chain: AGGGGVAVTSAAGGGSPPATSCPVACSCSNQASRVICTRRDLAEVPASIPVNTRYLNLQENGIQVIRTDTFKHLRHLEILQLSKNLVRKIEVGAFNGLPSLNTLELFDNRLTTVPTQAFEYLSKLRELWLRNNPIESIPSYAFNRVPSLRRLDLGELKRLEYISEAAFEGLVNLRYLNLGMCNLKDIPNLTALVRLEELELSGNRLDLIRPGSFQGLTSLRKLWLMHAQVATIERNAFDDLKSLEELNLSHNNLMSLPHDLFTPLHRLERVHLNHNPWHCNCDVLWLSWWLKETVPSNTTCCARCHAPAGLKGRYIGELDQSHFTCYAPVIVEPPTDLNVTEGMAAELKCRTGTSMTSVNWLTPNGTLMTHGSYRVRISVLHDGTLNFTNVTVQDTGQYTCMVTNSAGNTTASATLNVSAVDPVAAGGTGSGGGGPGGSGGVGGGSGGYTYFTTVTVETLETQPGEEALQPRGTEKEPPGPTTDGVWGGGRPGDAAGPASSSTTAPAPRSSRPTEKAFTVPITDVTENALKDLDDVMKTTK
B2: LRRC4B (157-713): FLAG-tagged LRRC4B deletion construct, amino acids 157-713 of SEQ ID NO: 2 (SEQ ID NO: 53) (protein)
chain: LSKLRELWLRNNPIESIPSYAFNRVPSLRRLDLGELKRLEYISEAAFEGLVNLRYLNLGMCNLKDIPNLTALVRLEELELSGNRLDLIRPGSFQGLTSLRKLWLMHAQVATIERNAFDDLKSLEELNLSHNNLMSLPHDLFTPLHRLERVHLNHNPWHCNCDVLWLSWWLKETVPSNTTCCARCHAPAGLKGRYIGELDQSHFTCYAPVIVEPPTDLNVTEGMAAELKCRTGTSMTSVNWLTPNGTLMTHGSYRVRISVLHDGTLNFTNVTVQDTGQYTCMVTNSAGNTTASATLNVSAVDPVAAGGTGSGGGGPGGSGGVGGGSGGYTYFTTVTVETLETQPGEEALQPRGTEKEPPGPTTDGVWGGGRPGDAAGPASSSTTAPAPRSSRPTEKAFTVPITDVTENALKDLDDVMKTTKIIIGCFVAITFMAAVMLVAFYKLRKQHQLHKHHGPTRTVEIINVEDELPAASAVSVAAAAAVASGGGVGGDSHLALPALERDHLNHHHYVAAAFKAHYSSNPSGGGCGGKGPPGLNSIHEPLLFKSGSKENVQETQI
modifications: FLAG tag
B3: LRRC4B (364-576): LRRC4B deletion construct, amino acids 364-576 of SEQ ID NO: 2 (SEQ ID NO: 61) (protein)
chain: PVIVEPPTDLNVTEGMAAELKCRTGTSMTSVNWLTPNGTLMTHGSYRVRISVLHDGTLNFTNVTVQDTGQYTCMVTNSAGNTTASATLNVSAVDPVAAGGTGSGGGGPGGSGGVGGGSGGYTYFTTVTVETLETQPGEEALQPRGTEKEPPGPTTDGVWGGGRPGDAAGPASSSTTAPAPRSSRPTEKAFTVPITDVTENALKDLDDVMKTTK
B4: LRRC4B (230-713): FLAG-tagged LRRC4B deletion construct, amino acids 230-713 of SEQ ID NO: 2 (SEQ ID NO: 54) (protein)
chain: RLEELELSGNRLDLIRPGSFQGLTSLRKLWLMHAQVATIERNAFDDLKSLEELNLSHNNLMSLPHDLFTPLHRLERVHLNHNPWHCNCDVLWLSWWLKETVPSNTTCCARCHAPAGLKGRYIGELDQSHFTCYAPVIVEPPTDLNVTEGMAAELKCRTGTSMTSVNWLTPNGTLMTHGSYRVRISVLHDGTLNFTNVTVQDTGQYTCMVTNSAGNTTASATLNVSAVDPVAAGGTGSGGGGPGGSGGVGGGSGGYTYFTTVTVETLETQPGEEALQPRGTEKEPPGPTTDGVWGGGRPGDAAGPASSSTTAPAPRSSRPTEKAFTVPITDVTENALKDLDDVMKTTKIIIGCFVAITFMAAVMLVAFYKLRKQHQLHKHHGPTRTVEIINVEDELPAASAVSVAAAAAVASGGGVGGDSHLALPALERDHLNHHHYVAAAFKAHYSSNPSGGGCGGKGPPGLNSIHEPLLFKSGSKENVQETQI
modifications: FLAG tag
B5: LRRC4B (36-713): FLAG-tagged LRRC4B deletion construct, amino acids 36-713 of SEQ ID NO: 2 (SEQ ID NO: 52) (protein)
chain: AGGGGVAVTSAAGGGSPPATSCPVACSCSNQASRVICTRRDLAEVPASIPVNTRYLNLQENGIQVIRTDTFKHLRHLEILQLSKNLVRKIEVGAFNGLPSLNTLELFDNRLTTVPTQAFEYLSKLRELWLRNNPIESIPSYAFNRVPSLRRLDLGELKRLEYISEAAFEGLVNLRYLNLGMCNLKDIPNLTALVRLEELELSGNRLDLIRPGSFQGLTSLRKLWLMHAQVATIERNAFDDLKSLEELNLSHNNLMSLPHDLFTPLHRLERVHLNHNPWHCNCDVLWLSWWLKETVPSNTTCCARCHAPAGLKGRYIGELDQSHFTCYAPVIVEPPTDLNVTEGMAAELKCRTGTSMTSVNWLTPNGTLMTHGSYRVRISVLHDGTLNFTNVTVQDTGQYTCMVTNSAGNTTASATLNVSAVDPVAAGGTGSGGGGPGGSGGVGGGSGGYTYFTTVTVETLETQPGEEALQPRGTEKEPPGPTTDGVWGGGRPGDAAGPASSSTTAPAPRSSRPTEKAFTVPITDVTENALKDLDDVMKTTKIIIGCFVAITFMAAVMLVAFYKLRKQHQLHKHHGPTRTVEIINVEDELPAASAVSVAAAAAVASGGGVGGDSHLALPALERDHLNHHHYVAAAFKAHYSSNPSGGGCGGKGPPGLNSIHEPLLFKSGSKENVQETQI
modifications: FLAG tag
B6: LRRC4B (453-713): FLAG-tagged LRRC4B deletion construct, amino acids 453-713 of SEQ ID NO: 2 (SEQ ID NO: 56) (protein)
chain: VSAVDPVAAGGTGSGGGGPGGSGGVGGGSGGYTYFTTVTVETLETQPGEEALQPRGTEKEPPGPTTDGVWGGGRPGDAAGPASSSTTAPAPRSSRPTEKAFTVPITDVTENALKDLDDVMKTTKIIIGCFVAITFMAAVMLVAFYKLRKQHQLHKHHGPTRTVEIINVEDELPAASAVSVAAAAAVASGGGVGGDSHLALPALERDHLNHHHYVAAAFKAHYSSNPSGGGCGGKGPPGLNSIHEPLLFKSGSKENVQETQI
modifications: FLAG tag
B7: LRRC4B (364-713): FLAG-tagged LRRC4B deletion construct, amino acids 364-713 of SEQ ID NO: 2 (SEQ ID NO: 55) (protein)
chain: PVIVEPPTDLNVTEGMAAELKCRTGTSMTSVNWLTPNGTLMTHGSYRVRISVLHDGTLNFTNVTVQDTGQYTCMVTNSAGNTTASATLNVSAVDPVAAGGTGSGGGGPGGSGGVGGGSGGYTYFTTVTVETLETQPGEEALQPRGTEKEPPGPTTDGVWGGGRPGDAAGPASSSTTAPAPRSSRPTEKAFTVPITDVTENALKDLDDVMKTTKIIIGCFVAITFMAAVMLVAFYKLRKQHQLHKHHGPTRTVEIINVEDELPAASAVSVAAAAAVASGGGVGGDSHLALPALERDHLNHHHYVAAAFKAHYSSNPSGGGCGGKGPPGLNSIHEPLLFKSGSKENVQETQI
modifications: FLAG tag

FAM19A5 protein, sequence (Q7Z5A7 44-132): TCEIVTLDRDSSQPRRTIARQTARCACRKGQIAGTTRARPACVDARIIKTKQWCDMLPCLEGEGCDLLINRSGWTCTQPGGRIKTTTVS

In the assay the target is FAM19A5 protein (Homo sapiens, UniProt Q7Z5A7). Nature of the assay: Co-immunoprecipitation of FLAG-tagged LRRC4 family constructs with recombinant FAM19A5 in HEK293 cells. The format is binding. To be noted: HEK293 cells expressing FLAG-tagged construct, recombinant FAM19A5 protein (1 μM) 30 minutes; anti-FLAG immunoprecipitation. As for the experimental part:
To better understand the interaction between FAM19A5 and members of the LRRC4 protein family, HEK293 cells were modified to express a FLAG-tagged member of the LRRC4 protein family, i.e., LRRC4C protein, LRRC4 protein, or LRRC4B protein. Then, the HEK293 cells or primary cortical neurons were treated with recombinant FAM19A5 protein (1 μM) for 30 minutes, and the binding between FAM19A5 protein and the different members of the LRRC4 protein family was assessed using both co-immunoprecipitation and immunofluorescence assays.
For the co-immunoprecipitation assay, cell lysates from the different FAM19A5-treated HEK293 cells were collected and immunoprecipitated with an anti-FLAG antibody, anti-FAM19A5 (1-65) antibody, or a human IgG antibody (control). Immunoprecipitated proteins were immunoblotted with anti-FLAG and anti-FAM19A5 (3-2) antibodies. For the immunofluorescence assay, the HEK293 cells treated with the recombinant FAM19A5 protein were immunostained with anti-FAM19A5 (3-2) (to detect FAM19A5 protein expression) and anti-FLAG antibodies (to detect member of the LRRC4 protein family). The primary cortical neurons treated with the recombinant FAM19A5 protein were immunostained with anti-FAM19A5 (3-2) and anti-LRRC4B antibodies. The nuclei were stained with Hoechst33342 (blue).
To determine the specific motif or domain of the LRRC4B protein that is responsible for the binding to a FAM19A5 protein, various FLAG-tagged LRRC4B deletion constructs were generated (see Table 6 below). HEK293 cells were transfected with the different deletion constructs and then treated with recombinant FAM19A5 protein as described in Example 1. Then, the cell lysates from the different HEK293 cells were immunoprecipitated with the anti-FLAG antibody. The immunoprecipitated proteins were immunoblotted with anti-FLAG and anti-FAM19A5 (3-2) antibodies.
As described in Example 2, all members of the LRRC4 protein family were capable of binding to FAM19A5 protein to varying degrees. Therefore, to compare the bindings domains, the amino acid sequences of the LRRC4B, LRRC4, and LRRC4C proteins were aligned. […] Therefore, to assess whether the corresponding positions of LRRC4 and LRRC4C were important in the binding of these proteins to FAM19A5 protein, cDNAs encoding either (i) LRRC4C protein fragment (amino acids 354-527 of SEQ ID NO: 3; SEQ ID NO: 66) or (ii) LRRC4 protein fragment (amino acids 353-527 of SEQ ID NO: 1; SEQ ID NO: 67) were constructed (see Table 7). HEK293 cells were transfected to express either of the protein fragments and then treated with recombinant FAM19A5 protein as described in Example 1. Then, the cell lysates from the different HEK293 cells were immunoprecipitated with the anti-FLAG antibody. The immunoprecipitated proteins were immunoblotted with anti-FLAG and anti-FAM19A5 (3-2) antibodies.
Take B1: the “binding to FAM19A5 protein (co-immunoprecipitation)” value (“binding to FAM19A5 protein” for short) was “able to bind to the FAM19A5 protein”.

B2: the “binding to FAM19A5 protein” value was “able to bind to the FAM19A5 protein”.

Consider B3, for which the “binding to FAM19A5 protein” value is on record as “able to bind to the FAM19A5 protein”.

With B4, the “binding to FAM19A5 protein” value is listed as “able to bind to the FAM19A5 protein”.

Take B5: the “binding to FAM19A5 protein” value is given as “able to bind to the FAM19A5 protein”.

B6: the “binding to FAM19A5 protein” value is on record as “able to bind to the FAM19A5 protein”.

With B7, the “binding to FAM19A5 protein” value is “able to bind to the FAM19A5 protein”.

The values are drawn from patent US20250333441A1, “POLYPEPTIDE INHIBITORS AND USES THEREOF” (Neuracle Science Co., Ltd., priority 2021, published 2025).
